The values that follow come from patent publication US20080131434A1 (ONCOMED PHARMACEUTICALS, published 2008).

One assay deals with T1, EGF2-5.
T1 construct: member of the EGF 1-5 deletion series; also called NOTCH1 EGF 2-5 Fc fusion protein (deletion series)
T1 chain: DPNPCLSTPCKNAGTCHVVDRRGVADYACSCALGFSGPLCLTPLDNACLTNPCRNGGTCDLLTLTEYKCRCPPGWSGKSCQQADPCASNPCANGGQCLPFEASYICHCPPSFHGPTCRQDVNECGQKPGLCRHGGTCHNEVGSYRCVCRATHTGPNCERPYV
In words: Western blot of Fc fusion proteins of the antigen deletion series, non-reduced SDS-PAGE. An excerpt: (§1) FIG. 1: Epitope mapping of anti-NOTCH1 monoclonal antibodies that bind to non-ligand binding domains.
(§2) To identify antibodies that recognize specific non-ligand binding regions of the NOTCH receptor extracellular domains, epitope mapping was preformed. In certain embodiments, mammalian expression plasmid vectors comprising a CMV promoter upstream of polynucleotides that encode fragments of the extracellular NOTCH1 domain as Fc fusion proteins were generated using standard recombinant DNA technology. These fusion proteins included a series of NOTCH1 fragments containing a nested series of deletions of EGF domains 1-5 or 10-15. Recombinant proteins were then expressed in cultured mammalian cells by transient transfection. Twenty-four to 48 hours following transfection, cells were harvested and cell lysate protein separated on non-reducing SDS-PAGE acrylamide gels for Western blotting using antibodies from mice immunized with NOTCH1 antigen. […] All antibody affinities were determined by BIAcore.
In general terms: In western blotting, separated proteins are transferred to a membrane and probed.

The target of another assay is T2, EGF1.
T2 construct: member of the EGF 1-5 deletion series; also called NOTCH1 EGF 1 Fc fusion protein (deletion series)
T2 chain: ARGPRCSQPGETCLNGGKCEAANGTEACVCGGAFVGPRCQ
The description is as above.
Text: as §1, §2

The next assay has as its target T3, EGF1-2.
T3 construct: member of the EGF 1-5 deletion series; also called NOTCH1 EGF 1-2 Fc fusion protein (deletion series)
T3 chain: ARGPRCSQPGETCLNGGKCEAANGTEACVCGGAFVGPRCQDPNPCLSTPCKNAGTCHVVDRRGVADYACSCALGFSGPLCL
The description is as above.
Text: as §1, §2

Assay [1] has as its target T4, NOTCH1 EGF 5 Fc fusion protein (human, UniProt P46531 178-220, limits assumed).
T4 construct: domain: EGF 5; Member of the nested deletion series; also called EGF 5 alone; not shown: Fc
T4 chain (looked up): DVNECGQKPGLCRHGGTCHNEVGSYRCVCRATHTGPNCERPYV
Put plainly: Western blot, SDS-PAGE of Fc fusion proteins.
Text: as §1, §2

For assay [2], the target named is T5, NOTCH1 EGF 1-3 Fc fusion protein (human, UniProt P46531 19-139, limits assumed).
T5 construct: domain: EGF 1-3; Member of the nested deletion series; not shown: Fc
T5 sequence (looked up): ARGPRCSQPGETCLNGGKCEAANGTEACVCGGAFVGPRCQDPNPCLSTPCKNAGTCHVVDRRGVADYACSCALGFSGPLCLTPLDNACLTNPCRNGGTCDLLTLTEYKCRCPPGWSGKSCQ
In words: Western blot, SDS-PAGE of Fc fusion proteins.
Text: as §1, §2

Assay [3] concerns the target T6, NOTCH1 (construct used in the assay not stated) (human, UniProt P46531 19-220, limits assumed).
T6 sequence (looked up): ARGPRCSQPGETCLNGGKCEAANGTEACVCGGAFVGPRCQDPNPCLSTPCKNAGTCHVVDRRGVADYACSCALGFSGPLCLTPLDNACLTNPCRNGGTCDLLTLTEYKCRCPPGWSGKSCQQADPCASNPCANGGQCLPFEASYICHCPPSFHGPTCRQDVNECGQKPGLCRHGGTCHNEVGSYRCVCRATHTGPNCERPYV
Put plainly: BIAcore; format and NOTCH1 construct not stated. (In general: SPR reads the build-up and loss of mass on a sensor chip optically.)

B1: anti-NOTCH1 monoclonal antibody 13M57 (antibody, mouse IgG1, kappa, V domains shown)
VH: EVNLVESGGDLVQPGGSLRLSCAASGFTFSSYTMSWVRQTPEKRLEWVAYIDYGGDFTSYSDAIRGRFTISRDNAKNTLYLQMSSLKSEDTAIYYCSRRRYDAMDYWGQGTSVIVSS
VL: DIQMTQSTSSLSASLGDRVTVSCSASQAISNYLNWYQQKPDGTLKLLIYYTTNLHSGVPSRFSGSGSGTDYSLTISNLEPEDIATYYCQQYSKFPWTFGGGTKLEIKR
notes: Murine hybridoma antibody raised against NOTCH1 EGF repeats 1-5; Conjugated to Alexa Fluor 647 for some FACS work; also called 13M30
As usually defined, the Kd is the free concentration of one partner at which half of the binding sites on the other are occupied at equilibrium, for simple one-to-one binding. A lower Kd goes with a tighter complex. With B1, the binding result with EGF2-5 is listed as “binds”; with EGF1, “no binding”; with EGF1-2 it was “no binding”; in assay [1] it was “no binding”; in assay [2], “no binding”. This molecule also displayed a Kd in assay [3] of 0.2 nM.
